Data on two molecules can be found in publication PMC4260453 (Molecular microbiology, 2011).

The target of the experiment is T1, DnaE (Bacillus subtilis, UniProt O34623 1-1115).
T1 sequence: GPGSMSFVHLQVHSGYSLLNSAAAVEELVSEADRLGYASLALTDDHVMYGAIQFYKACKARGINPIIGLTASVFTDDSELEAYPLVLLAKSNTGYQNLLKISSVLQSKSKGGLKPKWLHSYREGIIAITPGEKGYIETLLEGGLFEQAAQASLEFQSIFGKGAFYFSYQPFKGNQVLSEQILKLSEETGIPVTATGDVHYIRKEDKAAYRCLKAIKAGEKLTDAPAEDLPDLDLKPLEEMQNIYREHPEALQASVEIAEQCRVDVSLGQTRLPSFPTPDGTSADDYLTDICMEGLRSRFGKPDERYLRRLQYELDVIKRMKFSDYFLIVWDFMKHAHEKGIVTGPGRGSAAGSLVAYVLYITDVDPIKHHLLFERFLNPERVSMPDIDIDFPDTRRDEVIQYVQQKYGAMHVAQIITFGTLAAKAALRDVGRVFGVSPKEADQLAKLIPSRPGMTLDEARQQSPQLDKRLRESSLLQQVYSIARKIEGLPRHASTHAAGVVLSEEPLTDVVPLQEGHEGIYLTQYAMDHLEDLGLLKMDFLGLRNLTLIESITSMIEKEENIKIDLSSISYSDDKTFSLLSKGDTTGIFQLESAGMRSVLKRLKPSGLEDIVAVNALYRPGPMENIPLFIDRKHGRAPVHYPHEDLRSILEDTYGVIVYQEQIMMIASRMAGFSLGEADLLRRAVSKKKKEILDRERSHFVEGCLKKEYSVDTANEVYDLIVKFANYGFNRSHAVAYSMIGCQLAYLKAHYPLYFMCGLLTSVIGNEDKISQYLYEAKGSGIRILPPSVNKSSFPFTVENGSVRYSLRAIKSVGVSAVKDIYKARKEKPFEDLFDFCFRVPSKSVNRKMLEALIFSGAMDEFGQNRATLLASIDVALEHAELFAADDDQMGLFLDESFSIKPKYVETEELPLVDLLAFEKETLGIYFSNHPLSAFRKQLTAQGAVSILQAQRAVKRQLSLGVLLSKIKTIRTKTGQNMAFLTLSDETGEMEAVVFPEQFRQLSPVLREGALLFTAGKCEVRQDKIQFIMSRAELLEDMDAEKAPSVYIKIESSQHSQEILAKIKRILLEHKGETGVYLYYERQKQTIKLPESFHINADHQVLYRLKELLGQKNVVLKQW
The experiment in a line: far-Western, overlay or dot blot.

B1: MutS (natural protein, Bacillus subtilis)
chain: GPGSMAGYTPMIQQYLKIKAEHQDAFLFFRLGDFYEMFFEDAKKASQELEITLTSRDGGAAEKIPMCGVPYHSASAYIEQLIKKGYKVAICEQTEDPKAAKGVVKREVVQLITPGTVMDGKGIHESENNFIASVSACSNGYGLALSDLTTGENLAVLIERLEDVISEIYSVGAREIVVSGSLDADTVAQLRERCGATISIEDGETDEHVTIIEHLNNEDITKTFLRLYTYLKRTQKRSLDHLQPVQVYELEEAMKIDLYSKRNLELTETIRSKNKKGSLLWLLDETKTAMGGRLLKQWIDRPLIRVNQIEERQEMVETLMSHFFEREDLRERLKEVYDLERLAGRVAFGNVNARDLIQLKESLKQVPGIKQLVASLAHDKAKERAKRIDPCGDVLELLEEALYENPPLSVKEGNLIKDGYNQKLDEYRDASRNGKDWIARLEQQEREYTGIRSLKVGFNKVFGYYIEVTKANLHLLEEGRYERKQTLTNAERYITPELKEKEALILEAENNICELEYELFTELREKVKQYIPRLQQLAKQMSELDALQCFATISENRHYTKPEFSKDEVEVIEGRHPVVEKVMDSQEYVPNNCMMGDNRQMLLITGPNMSGKSTYMRQIALISIMAQIGCFVPAKKAVLPIFDQIFTRIGAADDLISGQSTFMVEMLEAKNAIVNATKNSLILFDEIGRGTSTYDGMALAQAIIEYVHDHIGAKTLFSTHYHELTVLEDKLPQLKNVHVRAEEYNGTVVFLHQIKEGAADKSYGIHVAQLAELPGDLIARAQDILKELEHSGNKPEVPVQKPQVKEEPAQLSFFDEAEKPAETPKLSKKEKQVIDAFKSLNILDMTPLEAMNEMYKLQKKLH
Consider B1, for which the binding result was “binds”.

B2: His6-SSB (natural protein, Bacillus subtilis, UniProt P37455 1-172, looked up)
chain: MLNRVVLVGRLTKDPELRYTPNGAAVATFTLAVNRTFTNQSGEREADFINCVTWRRQAENVANFLKKGSLAGVDGRLQTRNYENQQGQRVFVTEVQAESVQFLEPKNGGGSGSGGYNEGNSGGGQYFGGGQNDNPFGGNQNNQRRNQGNSFNDDPFANDGKPIDISDDDLPF
Consider B2, for which the binding result is “binds”.
